Paper PMC6724690 (Molecular Biology of the Cell, 2019)

B1: Alp14 (residues 1–690) C-terminally fused to mNeonGreen (domain or fragment)
chain: MSQDQEEDYSKLPLESRIVHKVWKVRLSAYEECSKSFSLSADGSDNCFELWNNQSELWKSVLTDSNVAAQEAGTAAFVAYCRFSDPSHLLKAREISVLSISEKCLTSPRAGTRENALEALMLLVEADSAAPVIESIIPSLSARSPKVIASNVAAIASLVEQFGAKVIPSKMIIPHISNLFGHADKNVRKEASRLTVNIYRWTGDPLKDLLFKDLRPVQTKELESLFAELPTEPPKQTRFLKSQQPTSEPNVETQVEEQPALENEESEPEPSDDQFDLVEEVDVLPNVDPNLETLMASSKWKDRKEALDKLLPVLSQPKIKDNDFFNLVAILTKSVSKDANIMVVINAAHCIQAMAKGLRSNFSKYASTSINALLERSKEKKANVIESLSSAMDAVLATSSLDDLAELIASFAGNKNPQIKSSCFSLFSRSFSNMTSLPSKFTVDTCAKACVPGVSDTFEPVRSAAAEALGVLMKLVGERAINQYLSPLDDIRKSKIRSFYETATVKAKAPTKKSKVKPSKQEESKVVVPSNAKAVKKSVVPSSPVVPSPRKATNKSLSMDVSKGNAFENGPLLPRPTTRPVSRGLSRGTSSSLQQKVKASTPLNSGALNETVQNLKNMELDDPAPQPAKHSRVDRYEHPKVLEDNDSTISSLESLKRENEELREQLKVEHEENISMQKQLSELKGELNTL
B2: C-terminal-SNAPf-tagged Alp14 (residues 1–690), labelled with SNAP-surface Atto-488 (domain or fragment, S. pombe, UniProt O94534 1-690, looked up)
chain: B1 chain
modifications: SNAP-surface Atto-488 fluorophore covalently attached to the SNAP tag

Legend:
[1] = target: porcine αβ-tubulin, as dynamic microtubules polymerizing from soluble αβ-tubulin (porcine) (UniProt P02550); assay: TIRF microscopy of dynamic microtubules
[2] = target: porcine αβ-tubulin, as dynamic microtubules polymerizing from soluble αβ-tubulin (porcine) (UniProt P02550); assay: single-molecule TIRF microscopy of dynamic microtubules
[3] = target: the molecule itself; assay: single-molecule fluorescence intensity distribution

Binder	average MT plus-end tracking ratio [1]	average tracking time at MT plus ends [1] [s]	mean dwell time at polymerizing MT plus ends [2] [s]	stoichiometry N [3]
B1	0.89	125		
B2			129	2
